This note sets out measurements from paper PMC3467059 (Nucleic Acids Research, 2012).

One assay addresses PspF1–275 T86S (E. coli, UniProt P37344 1-275, T86S). Put plainly: native gel or EMSA.
Another assay addresses PspF1–275 F85Y (E. coli, UniProt P37344 1-275, F85Y). In words: native gel or EMSA.

As for LQQELQQ (peptide, UniProt P06223 33-39, looked up) [σ54RI peptide fragment, residues 33–39 (Patch 2)], the binding result with PspF1–275 T86S and with PspF1–275 F85Y was “binds” throughout.
As for QLQQAIRL (peptide, UniProt P06223 18-25, looked up) [σ54RI peptide fragment, residues 18–25 (Patch 1)], in the assay with PspF1–275 F85Y, the binding result is recorded as “binds”.
